{"source": "paper PMC3197643", "about": "(2011)", "parents": {"B1": {"name": "V5-tagged full-length OX1R [mouse] / Myc-tagged Dynlt1 [mouse] (parent complex)", "chain 1": "MEPSATPGAQPGVPTSSGEPFHLPPDYEDEFLRYLWRDYLYPKQYEWVLIAAYVAVFLIALVGNTLVCLAVWRNHHMRTVTNYFIVNLSLADVLVTAICLPASLLVDITESWLFGQALCKVIPYLQAVSVSVAVLTLSFIALDRWYAICHPLLFKSTARRARGSILGIWAVSLAVMVPQAAVMECSSVLPELANRTRLFSVCDEHWADELYPKIYHSCFFIVTYLAPLGLMAMAYFQIFRKLWGRQIPGTTSALVRNWKRPSEQLEAQHQGLCTEPQPRARAFLAEVKQMRARRKTAKMLMVVLLVFALCYLPISVLNVLKRVFGMFRQASDREAVYACFTFSHWLVYANSAANPIIYNFLSGKFREQFKAAFSCCLPGLGPGSSARHKSLSLQSRCSVSKVSEHVVLTTVTTVLS", "chain 2": "MEDFQASEETAFVVDEVSSIVKEAIESAIGGNAYQHSKVNQWTTNVLEQTLSQLTKLGRPFKYIVTCVIMQKNGAGLHSASSCFWDSSTDGSCTVRWENKTMYCIVSTFGLSI"}}, "data": [{"variants_of": "B1", "test": "co-IP, quantification of Western blotting bands; parent: 100; read off a plot", "units": {"percent of parent": "% vs OX1R wild-type"}, "values": [{"variant": "chain 1 MEPSATPGAQPGVPTSSGEPFHLPPDYEDEFLRYLWRDYLYPKQYEWVLIAAYVAVFLIALVGNTLVCLAVWRNHHMRTVTNYFIVNLSLADVLVTAICLPASLLVDITESWLFGQALCKVIPYLQAVSVSVAVLTLSFIALDRWYAICHPLLFKSTARRARGSILGIWAVSLAVMVPQAAVMECSSVLPELANRTRLFSVCDEHWADELYPKIYHSCFFIVTYLAPLGLMAMAYFQIFRKLWGRQIPGTTSALVRNWKRPSEQLEAQHQGLCTEPQPRARAFLAEVKQMRARRKTAKMLMVVLLVFALCYLPISVLNVLKRVFGMFRQASDREAVYACFTFSHWLVYANSAANPIIYNFLSGKFREQFKAAFSCCLPGLGPGSSARHKSLSLQSRCSVSKVSEHVVLATVATVLS", "note": "[chain 1 T409A, chain 1 T412A]", "percent of parent": "~28"}]}]}
